Assay results taken from US20210252159A1, “CONJUGATES OF CARTILAGE-HOMING PEPTIDES” (priority 2018, published 2021).
No end group written: not given here.

Experiments:
[1] = Comparison of joint retention time among radiolabeled peptides (QWBA, knee and IVD); format: in vivo; set-up: Peptide Signal Retention in Knee / Peptide Signal Retention in IVD: unit not given here; settings: for joint retention: SEQ ID NO: 105 57-60 nmol, SEQ ID NO: 103 130 nmol, SEQ ID NO: 184 150 nmol
Method: Frozen carcasses were allowed to off gas hexane overnight at −20° and then embedded in chilled 2% carboxymethylcellulose (Sigma Aldrich) and sectioned sagittally at a thickness of 40 μm on an H/I Bright 8250 Cryostat (Hacker Instruments). Radioactive control guides were drilled into each block to verify even cutting depth along the length of the section. The radioactive guide consisted of ^14C-Glycine (American Radiolabeled Chemicals, “ARC”) at 0.5 uCi/ml in 0.5% BSA (Sigma Aldrich) in PBS. Sections were collected onto 4-inch wide tape (Scotch 821, ULINE) at 2-4 depths to sample approximately 30 tissues with particular focus on the knees and spine. Collected sections were freeze dried in the cryostat for 48-72 hours then mounted on sturdy paper and covered with a single protective layer of cellophane (Reynolds Food Service Film). Mounted sections were exposed to phosphor imager plates (Raytest) along with a radioactive standard Curve (1465-PL, ARC) for 7-days, scanned on a Raytest CR-35 at “25 μm sensitive” setting.
Quantification of the radioactivity detected in WBA samples was evaluated by measuring the pixel density/mm^2 (“SI”: Signal Intensity/Area−background) using AIDA Image Analyzer v 5.1 Whole Body Autoradiography Professional software (Raytest). Regions of interest (ROIs) were drawn manually around the entire visible tissue, comparing the sectioned sample to the autoradiogram. For quantification, all visible knee or IVD (intervertebral disc) tissues for one rodent across all collected sections were measured and averaged together to generate one knee or IVD value per animal. Typically were sampled 1-2 knee values (from femoral and tibial cartilage) per 1-2 sections per animal and 3-10 IVD per 1-2 sections per animal. To collect quantified values for other tissues, ROIs were drawn around blood in the heart ventricle, spinotrapezius muscle, the liver, or the kidney (including cortex and medulla) in all sections in which the tissue was observed and then averaged to yield one value per tissue per animal.
Data were presented as nmol of compound per gram of tissue. The commercial standard strips co-exposed with each WBA sample set were calibrated so that a known amount of radioactive counts per minute (CPM) per gram of tissue, determined by liquid scintillation counting (LSC), corresponded to the measured WBA SI at 11 standard strip concentration data points. The regression line of the log 10 transformed WBA signal intensity plotted against the log 10 transformed CPM/g gave a linear range of 1×10^5 to 7.5×10^7 WBA SI, corresponding to 6.3 nCi/g to 3.3 μCi/g. The log 10 concentration of radioactivity in each tissue (CPM/g) was interpolated from the standard curve, converted to linear values, and translated from CPM/g to uCi/g by interpolation against an LSC CPM to μCi standard curve. Uptake (nmol of compound/g of tissue) was determined by dividing the μCi/g tissue by the μCi/nmol specific activity of the peptide.
Peptide(SEQ ID NO: 105) was dosed at 57-60 nmol. Peptide(SEQ ID NO: 103) was dosed at 130 nmol. Peptide(SEQ ID NO: 184) was dosed at 150 nmol. […] It should be noted that detection of retention is based on an assay that detects radiolabeling of the N-terminus of each of the tested conjugates, thus decrease in signal over time may be due not only to peptide diffusion back out of the cartilage but also aminopeptidase-mediated removal of N-terminal amino acid, general peptide cleavage, or other mechanisms. Results as measured by QWBA methods described herein are shown in Tables 6 and 7 below and FIG. 11.

[2] = Biodistribution and pharmacokinetics of ^14C-labeled peptides in knee and IVD (QWBA); format: in vivo, athymic nude mice; settings: for levels in knee and IVD compared with peptide(SEQ ID NO: 105): After 24 hours
Method: Synthetic peptides were radiolabeled by reductive methylation of the N-terminus with ^14C formaldehyde. 2 mice per time point were injected IV with 12.4 μCi of peptide (approximately 100 nmol or 18 mg/kg) and then euthanized at 0.08, 0.5, 1, 3, 8, 24, 48, 72, or 96 hours, followed by quantitative whole body autoradiography analysis.
To that end, the biodistribution pharmacokinetics of ^14C-labeled peptides ^14C-peptide(SEQ ID NO: 105), ^14C-peptide(SEQ ID NO: 103), and ^14C-peptide(SEQ ID NO: 184) to the knee (FIG. 19A and FIG. 19B) and intraverterbral discs (IVD, FIG. 19C and FIG. 19D) was assessed in mice (FIG. 19). Tissue levels were quantified by whole body autoradiography of peptides that had been radiolabeled by reductive methylation of the N-terminus. ^14C-peptide(SEQ ID NO: 105) and ^14C-peptide(SEQ ID NO: 103) both peaked in knee and IVD around 1-3 hours whereas ^14C-peptide(SEQ ID NO: 184) peaked later at 8 hours. […] All peptides still had observable signal at the last time point of 96 hours. […] As the peptide levels are based on the radiolabel attached to the N-terminus of the peptide, the decrease in signal with time may be due to aminopeptidase activity on the N-terminus of the peptides (which would not be relevant on PDC conjugates, where the drug linker is attached to the N-terminus), due to peptide diffusion back out of the cartilage, or due to general peptide backbone cleavage. For example, higher sustained levels of peptide in the cartilage may be desirable if drug cleavage has a slower pharmacokinetics, and if the peptide-drug conjugate is not saturating peptide binding sites in the cartilage when using repeat dosing. As another example, an earlier tmax in cartilage may be desirable to minimize premature cleavage of a conjugated drug in serum.

Sequence | Peptide Signal Retention in IVD ([1]; 0.08 Hours) | Peptide Signal Retention in Knee ([1]; 0.08 Hours) | Peptide Signal Retention in IVD ([1]; 0.5 Hours) | Peptide Signal Retention in Knee ([1]; 0.5 Hours) | Peptide Signal Retention in IVD ([1]; 1 Hours) | Peptide Signal Retention in Knee ([1]; 1 Hours) | Peptide Signal Retention in IVD ([1]; 3 Hours) | Peptide Signal Retention in Knee ([1]; 3 Hours) | Peptide Signal Retention in IVD ([1]; 8 Hours) | Peptide Signal Retention in Knee ([1]; 8 Hours) | Peptide Signal Retention in IVD ([1]; 24 Hours) | Peptide Signal Retention in Knee ([1]; 24 Hours) | Peptide Signal Retention in IVD ([1]; 48 Hours) | Peptide Signal Retention in Knee ([1]; 48 Hours) | joint retention [1] | levels in knee and IVD compared with peptide(SEQ ID NO: 105) [2] | other results
GSSERDCIRHLQRCRENRDCCSRRCSRRGTNPERRCR (not fully specified (N-terminus, bridges); cysteine pairing not given here) [peptide(SEQ ID NO: 103), cartilage-homing cystine-dense peptide; biodistribution with form ^14C-methylated on the N-terminus] | 59.15 | 79.20 | 76.62 | 110.57 | 100.00 | 100.00 | 113.18 | 103.00 | 107.52 | 98.94 | 50.75 | 44.60 | 34.86 | 29.30 | Longer joint retention | substantially higher levels | –
GSGDCLPHLRRCRENNDCCSRRCRRRGANPERRCR (not fully specified (N-terminus, bridges); cysteine pairing not given here) [peptide(SEQ ID NO: 184), cartilage-homing cystine-dense peptide; biodistribution with form ^14C-methylated on the N-terminus] | 53.02 | 96.94 | 49.70 | 69.85 | 100.00 | 100.00 | 238.11 | 158.43 | 119.97 | 111.32 | 64.00 | 57.81 | 49.99 | 50.44 | Longer joint retention | substantially higher levels | Peptide Signal Retention in IVD ([1]; 72 Hours): 52.20; Peptide Signal Retention in Knee ([1]; 72 Hours): 28.30; Peptide Signal Retention in IVD ([1]; 96 Hours): 36.54; Peptide Signal Retention in Knee ([1]; 96 Hours): 11.84; time of peak in knee and IVD ([2]; mice, approximately 100 nmol IV, QWBA): 8 h
